Source: PMC11868609 (Communications Biology, 2025)
Where “and” joins values, the source holds several entries; their conditions need not be identical. Identical values can stand only once.

T1: VapC35 toxin (M. tuberculosis, UniProt P9WF67 1-135)
T1 sequence: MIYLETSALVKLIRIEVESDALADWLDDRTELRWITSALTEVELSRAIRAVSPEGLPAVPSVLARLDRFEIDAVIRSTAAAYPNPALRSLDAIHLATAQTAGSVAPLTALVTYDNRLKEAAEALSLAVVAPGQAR

B1: VapB35 antitoxin (natural protein)
chain: MNEVSIRTLNQETSKVLARVKRGEEINLTERGKVIARIIPASAGPLDSLISTGSVQPARVHGPAPRPTIPMRGGLDSGTLLERMRAEERY
B2: VapB3 antitoxin (natural protein)
chain: MLSRRTKTIVVCTLVCMARLNVYVPDELAERARARGLNVSALTQAAISAELENSATDAWLEGLEPRSTGARHDDVLGAIDAARDEFEA
B3: VapC3 toxin (natural protein)
chain: MRASPTSPPEQVVVDASAMVDLLARTSDRCSAVRARLARTAMHAPAHFDAEVLSALGRMQRAGALTVAYVDAALEELRQVPVTRHGLSSLLAGAWSRRDTLRLTDALYVELAETAGLVLLTTDERLARAWPSAHAIG

Tests used:
VapC35 toxin [1] = molecular target: T1, VapC35 toxin; assay: MST
VapC35 toxin [2] = molecular target: T1, VapC35 toxin; assay: SEC-MALS
VapC3 toxin [3] = molecular target: B3; assay: MST
VapC3 toxin [4] = molecular target: B3; assay: SEC-MALS
SEC-MALS = molecular target: the molecule itself; assay: SEC-MALS

Binder | Kd (VapC35 toxin [1]) [nM] | stoichiometry N (VapC35 toxin [2]) | Kd (VapC3 toxin [3]) [nM] | stoichiometry N (VapC3 toxin [4]) | stoichiometry N (SEC-MALS) [subunits]
B1 | 1 | 0.5 antitoxin chains per toxin chain (2:4) and 1 antitoxin chains per toxin chain (4:4) | – | – | –
B2 | ~14 | 0.5 antitoxin chains per toxin chain (2:4) and 1 antitoxin chains per toxin chain (4:4) | ~7 | 0.5 antitoxin chains per toxin chain (2:4) and 1 antitoxin chains per toxin chain (4:4) | –
B3 | – | – | – | – | 2
